T1: FcγRIIb extracellular domain with C-terminal His tag (human, UniProt P31994 43-217)
T1 construct: extracellular domain; also called FcgRIIb; 2b; not shown: His tag at the C terminus
T1 sequence (looked up): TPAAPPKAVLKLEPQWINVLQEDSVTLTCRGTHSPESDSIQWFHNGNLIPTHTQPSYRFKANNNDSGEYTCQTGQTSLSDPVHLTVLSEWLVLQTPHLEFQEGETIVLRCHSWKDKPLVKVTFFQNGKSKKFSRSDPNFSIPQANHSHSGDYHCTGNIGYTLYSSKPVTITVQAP

B1: GpH7-A5/GpH7-B3 variant S298_04F/GpL16-k0 (antibody, human IgG1, kappa)
heavy 1: not shown
heavy 2: not shown
light: DIVMTQSPLSLPVTPGEPASISCQASESLVHSNRNTYLHWYLQKPGQSPQLLIYKVSNRFSGVPDRFSGSGSGTDFTLKISRVEAEDVGVYYCSQNTHVPPTFGQGTKVEIERTVAAPSVFIFPPSDEQLKSGTASVVCLLNNFYPREAKVQWKVDNALQSGNSQESVTEQDSKDSTYSLSSTLTLSKADYEKHKVYACEVTHQGLSSPVTKSFNRGEC
notes: position is EU numbering; also called He Ab
B2: GpH7-A5/GpH7-B3 variant S298_07I/GpL16-k0 (antibody, human IgG1, kappa)
heavy 1: not shown
heavy 2: not shown
light: B1 light
notes: as for B1
B3: GpH7-A5/GpH7-B3 variant S298_09D/GpL16-k0 (antibody, human IgG1, kappa)
heavy 1: not shown
heavy 2: not shown
light: B1 light
notes: as for B1
B4: GpH7-A5/GpH7-B3 variant S298_14T/GpL16-k0 (antibody, human IgG1, kappa)
heavy 1: not shown
heavy 2: not shown
light: B1 light
notes: as for B1
B5: GpH7-A5/GpH7-B3 variant S298_15Y/GpL16-k0 (antibody, human IgG1, kappa)
heavy 1: not shown
heavy 2: not shown
light: B1 light
notes: as for B1
B6: GpH7-A5/GpH7-B3 variant S298_16H/GpL16-k0 (antibody, human IgG1, kappa)
heavy 1: not shown
heavy 2: not shown
light: B1 light
notes: as for B1
B7: GpH7-A5/GpH7-B3 variant S324_01G/GpL16-k0 (antibody, human IgG1, kappa)
heavy 1: not shown
heavy 2: not shown
light: B1 light
notes: as for B1
B8: GpH7-A5/GpH7-B3 variant S324_02A/GpL16-k0 (antibody, human IgG1, kappa)
heavy 1: not shown
heavy 2: not shown
light: B1 light
notes: as for B1
B9: GpH7-A5/GpH7-B3 variant S324_10E/GpL16-k0 (antibody, human IgG1, kappa)
heavy 1: not shown
heavy 2: not shown
light: B1 light
notes: as for B1
B10: GpH7-A5/GpH7-B3 variant S324_11K/GpL16-k0 (antibody, human IgG1, kappa)
heavy 1: not shown
heavy 2: not shown
light: B1 light
notes: as for B1
B11: GpH7-A5/GpH7-B3 variant S324_12R/GpL16-k0 (antibody, human IgG1, kappa)
heavy 1: not shown
heavy 2: not shown
light: B1 light
notes: as for B1
B12: GpH7-A5/GpH7-B3 variant S324_16H/GpL16-k0 (antibody, human IgG1, kappa)
heavy 1: not shown
heavy 2: not shown
light: B1 light
notes: as for B1
B13: GpH7-A5/GpH7-B3 variant S324_19Q/GpL16-k0 (antibody, human IgG1, kappa)
heavy 1: not shown
heavy 2: not shown
light: B1 light
notes: as for B1
B14: GpH7-A5/GpH7-B3 variant Y296_20W/GpL16-k0 (antibody, human IgG1, kappa)
heavy 1: not shown
heavy 2: not shown
light: B1 light
notes: as for B1
B15: GpH7-A5/GpH7-B3 variant Y300_01G/GpL16-k0 (antibody, human IgG1, kappa)
heavy 1: not shown
heavy 2: not shown
light: B1 light
notes: as for B1
B16: GpH7-A5/GpH7-B3 variant Y300_07I/GpL16-k0 (antibody, human IgG1, kappa)
heavy 1: not shown
heavy 2: not shown
light: B1 light
notes: as for B1
B17: GpH7-A5/GpH7-B3 variant Y300_08L/GpL16-k0 (antibody, human IgG1, kappa)
heavy 1: not shown
heavy 2: not shown
light: B1 light
notes: as for B1
B18: GpH7-A5/GpH7-B3 variant Y300_13S/GpL16-k0 (antibody, human IgG1, kappa)
heavy 1: not shown
heavy 2: not shown
light: B1 light
notes: as for B1

The binders below were run against T2, FcγRIIIa extracellular domain with C-terminal His tag (human, UniProt P08637 17-208) (assay: SPR (Biacore); ratio of He/Con_3a (FcγRIIIa) to He/Con_2b (FcγRIIb)).
T2 construct: extracellular domain; also called FcgRIIIa; 3a; not shown: His tag at the C terminus
T2 sequence (P08637 17-208): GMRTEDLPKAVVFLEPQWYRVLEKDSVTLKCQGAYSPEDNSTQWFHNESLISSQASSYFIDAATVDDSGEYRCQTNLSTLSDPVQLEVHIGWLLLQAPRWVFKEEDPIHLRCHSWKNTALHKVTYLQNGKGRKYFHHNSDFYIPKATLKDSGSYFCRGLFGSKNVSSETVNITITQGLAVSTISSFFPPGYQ
Description: (§1) The heterodimerized antibodies He Abs in which one of the H chains was introduced with an alteration were assayed for their binding activities to each activating FcγR and inhibitory FcγR according to the method described in Example 4. […] The activating FcγRs in FIGS. 26, 27, 28, and 29 are FcγRIa, FcγRIIa (R), FcγRIIa (H), and FcγRIIIa, respectively.
(§2) Analysis of interaction between objective antibody and the FcγR was carried out using Biacore T100 (GE Healthcare). HBS-EP+ (GE Healthcare) was used as the running buffer, and the measurement temperature was set to 25° C. Chips produced by immobilizing the antigen peptide by the amine coupling method to a Series S Sencor Chip CM5 (GE Healthcare), or alternatively, chips produced by allowing preliminarily biotinylated antigen peptides to interact with and immobilize onto a Series S Sensor Chip SA (certified) (GE Healthcare) were used. Antibodies of interest were captured onto an antigen peptide-immobilized chip, and allowed to interact to each FcγR diluted with running buffer. To regenerate and repeatedly use the chip, the antibodies captured on the chip were washed off by reacting 10 mM glycine-HCl, pH 1.5.

Row | Binder | He_3a/2b (IIIa/IIb) [ratio]
1 | B1 | 1.26
2 | B2 | 1.37
3 | B3 | 1.38
4 | B4 | 1.45
5 | B5 | 1.39
6 | B6 | 1.2
7 | B7 | 1.29
8 | B8 | 1.33
9 | B9 | 1.28
10 | B10 | 1.21
11 | B11 | 1.43
12 | B12 | 1.24
13 | B13 | 1.33
14 | B14 | 1.31
15 | B15 | 1.69
16 | B16 | 1.28
17 | B17 | 1.43
18 | B18 | 1.37

Each binder was assayed against T1, FcγRIIb extracellular domain with … (assay: SPR (Biacore), antibody captured, FcγR as analyte; He Ab binding / GpH7-A5/GpH7-B3/GpL16-k0 binding x 100).
Description: as §1, §2

Row | Binder | He/Con_2b (IIb binding)
19 | B1 | 65.4 relative, control = 100
20 | B2 | 70.6 relative, control = 100
21 | B3 | 48.3 relative, control = 100
22 | B4 | 77.9 relative, control = 100
23 | B5 | 61.4 relative, control = 100
24 | B6 | 63.5 relative, control = 100
25 | B7 | 81.1 relative, control = 100
26 | B8 | 78.3 relative, control = 100
27 | B9 | 77.4 relative, control = 100
28 | B10 | 68.6 relative, control = 100
29 | B11 | 63.1 relative, control = 100
30 | B12 | 83.5 relative, control = 100
31 | B13 | 66.8 relative, control = 100
32 | B14 | 103 relative, control = 100
33 | B15 | 48.4 relative, control = 100
34 | B16 | 74.5 relative, control = 100
35 | B17 | 73.6 relative, control = 100
36 | B18 | 53.9 relative, control = 100

What follows are binders tested against T2, FcγRIIIa extracellular domain with … in the same assay as above.
Description: as §1, §2

Row | Binder | He/Con_3a (IIIa binding)
37 | B1 | 82.5 relative, control = 100
38 | B2 | 96.4 relative, control = 100
39 | B3 | 66.7 relative, control = 100
40 | B4 | 113 relative, control = 100
41 | B5 | 85.6 relative, control = 100
42 | B6 | 76.5 relative, control = 100
43 | B7 | 105 relative, control = 100
44 | B8 | 104 relative, control = 100
45 | B9 | 99.3 relative, control = 100
46 | B10 | 83 relative, control = 100
47 | B11 | 90.3 relative, control = 100
48 | B12 | 104 relative, control = 100
49 | B13 | 88.5 relative, control = 100
50 | B14 | 135 relative, control = 100
51 | B15 | 81.6 relative, control = 100
52 | B16 | 95.1 relative, control = 100
53 | B17 | 105 relative, control = 100
54 | B18 | 73.9 relative, control = 100

From patent US20180155451A1 (published 2018)
